Reference: patent US20100143262A1, “Method for Identifying Allergenic Proteins And Peptides” (priority 2008, published 2010)

B1: beta-lactoglobulin variant A (protein)
chain: LIVTQTMKGLDIQKVAGTWYSLAMAASDISLLDAQSAPLRVYVEELKPTPEGDLEILLQKWENDECAQKKIIAEKTKIPAVFKIDALNENKVLVLDTDYKKYLLFCMENSAEPEQSLVCQCLVRTPEVDDEALEKFDKALKALPMHIRLSFNPTQLEEQCHI
notes: natural purified protein
B2: recombinant aS2-casein (protein)
chain: KNTMEHVSSSEESIISQETYKQEKNMAINPSKENLCSTFCKEVVRNANEEEYSIGSSSEESAEVATEEVKITVDDKHYQKALNEINQFYQKFPQYLQYLYQGPIVLNPWDQVKRNAVPITPTLNREQLSTSEENSKKTVDMESTEVFTKKTKLTEEEKNRLNFLKKISQRYQKFALPQYLKTVYQHQKAMKPWIQPKTKVIPYVRYL
notes: expressed in E. coli
B3: lactoferrin (protein, UniProt P24627 20-708, looked up)
Lactotransferrin: APRKNVRWCTISQPEWFKCRRWQWRMKKLGAPSITCVRRAFALECIRAIAEKKADAVTLDGGMVFEAGRDPYKLRPVAAEIYGTKESPQTHYYAVAVVKKGSNFQLDQLQGRKSCHTGLGRSAGWIIPMGILRPYLSWTESLEPLQGAVAKFFSASCVPCIDRQAYPNLCQLCKGEGENQCACSSREPYFGYSGAFKCLQDGAGDVAFVKETTVFENLPEKADRDQYELLCLNNSRAPVDAFKECHLAQVPSHAVVARSVDGKEDLIWKLLSKAQEKFGKNKSRSFQLFGSPPGQRDLLFKDSALGFLRIPSKVDSALYLGSRYLTTLKNLRETAEEVKARYTRVVWCAVGPEEQKKCQQWSQQSGQNVTCATASTTDDCIVLVLKGEADALNLDGGYIYTAGKCGLVPVLAENRKSSKHSSLDCVLRPTEGYLAVAVVKKANEGLTWNSLKDKKSCHTAVDRTAGWNIPMGLIVNQTGSCAFDEFFSQSCAPGADPKSRLCALCAGDDQGLDKCVPNSKEKYYGYTGAFRCLAEDVGDVAFVKNDTVWENTNGESTADWAKNLNREDFRLLCLDGTRKPVTEAQSCHLAVAPNHAVVSRSDRAAHVKQVLLHQQALFGKNGKNCPDKFCLFKSETKNLLFNDNTECLAKLGGRPTYEEYLGTEYVTAIANLKKCSTSPLLEACAFLTR
notes: natural purified protein
B4: human alpha-lactalbumin (protein)
chain: KQFTKCELSQLLKDIDGYGGIALPELICTMFHTSGYDTQAIVENNESTEYGLFQISNKLWCKSSQVPQSRNICDISCDKFLDDDITDDIMCAKKILDIKGIDYWLAHKALCTEKLEQWLCEKL
notes: natural purified protein
B5: BSA_F2: recombinant fragment 2 of BSA, 189 aa, sequence in Table 1A (protein)
chain: MARQRLRCASIQKFGERALKAWSVARLSQKEPKAEFVEVTKLVTDLTKVHKECCHGDLLECADDRADLAKYICDNQDTISSKLKECCDKPLLEKSHCIAEVEKDAIPENLPPLTADFAEDKDVCKNYQEAKDAFLGSFLYEYSRRHPEYAVSVLLRLAKEYEATLEECCAKDDPHACYSTVFDKLKHLVDEHHHHHH
B6: beta-casein (protein, UniProt P02666 16-224, looked up)
Beta-casein: RELEELNVPGEIVESLSSSEESITRINKKIEKFQSEEQQQTEDELQDKIHPFAQTQSLVYPFPGPIPNSLPQNIPPLTQTPVVVPPFLQPEVMGVSKVKEAMAPKHKEMPFPKYPVEPFTESQSLTLTDVENLHLPLPLLQSWMHQPHQPLPPTVMFPPQSVLSLSQSKVLPVPQKAVPYPQRDMPIQAFLLYQEPVLGPVRGPFPIIV
notes: natural purified protein
B7: recombinant beta-casein (protein)
chain: B6 Beta-casein
notes: expressed in E. coli
B8: BSA_F3: recombinant fragment 3 of BSA, 200 aa, sequence in Table 1A (protein)
chain: MPQNLIKQNCDQFEKLGEYGFQNALIVRYTRKVPQVSTPTLVEVSRSLGKVGTRCCTKPESERMPCTEDYLSLWNRLCVLHEKTPVSEKVTKCCTESLVNRRPCFSALTPDETYVPKAFDEKLFTFHADICTLPDTEKQIKKQTALVELLKHKPKATEEQLKTVMENFVAFVDKCCAADDKEACFAVEGPKLVVSTQTALAHHHHHH
B9: BSA_F1: recombinant fragment 1 of BSA, 190 aa, sequence in Table 1A (protein)
chain: MRGVFRRDTHKSEIAHRFKDLGEEHFKGLVLIAFSQYLQQCPFDEHVKLVNELTEFAKTCVADESHAGCEKSLHTLFGDELCKVASLRETYGDMADCCEKQEPERNECFLSHKDDSPDLPKLKPDPNTLCDEFKADEKKFWGKYLYEIARRHPYFYAPELLYYANKYNGVFQECCQAEDKGACLLPKIETMREKVLTSSHHHHHH
B10: recombinant alphaS1-casein (protein)
chain: RPKHPIKHQGLPQEVLNENLLRFFVAPFPEVFGKEKVNELSKDIGSESTEDQAMEDIKQMEAESISSSEEIVPNSVEQKHIQKEDVPSERYLGYLEQLLRLKKYKVPQLEIVPNSAEERLHSMKEGIHAQQKEPMIGVNQELAYFYPELFRQFYQLDAYPSGAWYYVPLGTQYTDAPSFSDIPNPIGSENSEKTTMPLW
notes: expressed in E. coli

test system: Humanized Rat Basophil Leukaemia (RBL) cells (clone RBL-703/21); assay: human RBL assay: β-hexosaminidase release of humanized RBL cells loaded with patients' serum IgE; format: cell-based; conditions: percentage of 78 patients' sera triggering β-hexosaminidase release; milk components 0.3 μg/ml
From the text: A scientifically approved model to test biological reactivity of molecules is induction of histamine release from human basophil granulocytes (Purohit 2005). For this purpose a rat basophil leukaemia cell line expressing the α-chain of the human FcεRI receptor (Hoffmann et al., Int Arch Allergy Immunol, Vol 126(4), p. 277-285) was used. Different milk components (n=33) including whole milk extracts from different species, milk fractions, purified natural and recombinant cow's milk proteins, and recombinant protein fragments were tested. The percentages of 78 patients whose serum IgE antibodies trigger β-hexosaminidase release of the humanized RBL cells in response to the individual milk components were determined (FIG. 3).
(§1) Sera from 78 patients who were selected according to a positive case history, positive skin-prick reactions and determination of specific IgE to cow's milk extract using the CAP-FEIA System (Phadia, Uppsala, Sweden) were used. Sera were obtained from five adults and 73 children (30 female and 43 male) from Austria, Germany, Italy, Spain and France.
Humanized Rat Basophil Leukaemia (RBL) cells (clone RBL-703/21) were incubated in microtiter plates overnight at 37° C. (7% CO2, 95% humidity) with 50 μl human sera, diluted 1:10. Afterwards cells were washed and exposed to milk components, diluted to 0.3 μg/ml protein in Tyrodes buffer containing 50% D2O and 0.1% BSA/HAS for 1 hour at 37° C. (7% CO2, 95% humidity). Spontaneous release of the cells was also evaluated. Finally, the cell supernatants were incubated with 50 μl assay solution (0.1 M citric acid or sodium citrate, pH 4.5, 160 μM 4-methyl umbelliferyl-N-acetyl-β-D-glucosaminide) in new microtiter plates at 37° C. (7% CO2, 95% humidity) for 1 h. The reactions were stopped by addition of 100 μl glycine buffer per well and the fluorescence measured at λex: 360 and λem: 465 using a fluorescence microplate reader. The specific hexosaminidase release of each sample was calculated using the formula: [(FlS−FlSp):(FlZ−FlSp)]×100 (where […] is the fluorescence of the sample; FlSp is the fluorescence of the spontaneous release and FlZ is the fluorescence of the total release).

Molecule	biological activity (% of patients)
B1	28.2 % of patients
B2	5.1 % of patients
B3	2.6 % of patients
B4	6.4 % of patients
B5	4.3 % of patients
B6	34.6 % of patients
B7	10.3 % of patients
B8	8.5 % of patients
B9	4.3 % of patients
B10	19.2 % of patients

test system: serum IgE of cow's milk allergic patients; assay: IgE binding capacity (IgE reactivity) of milk components with patients' sera; parameters: species or system human; conditions: sera of cow's milk allergic patients (n=78)
From the text: as §1

IgE binding (% of patients)	Molecule
50.0 % of patients	B1
9.0 % of patients	B2
5.1 % of patients	B3
30.8 % of patients	B4
8.5 % of patients	B5
44.9 % of patients	B6
55.1 % of patients	B7
8.5 % of patients	B8
2.1 % of patients	B9
48.7 % of patients	B10
